# Measured values taken from patent publication US20110118131A1 (published 2011).
# Positions count from the first letter of the chain named. In names and notes the source's numbering stands.
# B1: XPA23 light chain R31A (Fab, V domains shown)
# VH: EVQLLESGGGLVQPGGSLRLSCAASGFTFSKYFMFWVRQAPGKGLEWVSVISPSGGMTRYADSVKGRFTISRDNSKNTLYLQMNSLRAEDTAVYYCARVGYGGNSDYWGQGTLVTVSS
# VL: DIQMTQSPSSVSASVGDRLTIICRASQDINAWLAWYQQTPGNAPKLLIHSATSLQSGVPSRFSGSGSGTDFTLTINSLQPEDFATYYCQQADSFPLTFGGGTKVEIK
# B2: XPA23 light chain S50E (Fab, V domains shown)
# VH: B1 VH
# VL: B1 VL with A31R, S50E
# B3: XPA23 light chain R31H (Fab, V domains shown)
# VH: B1 VH
# VL: B1 VL with A31H
# B4: XPA23 light chain S50R (Fab, V domains shown)
# VH: B1 VH
# VL: B1 VL with A31R, S50R
# B5: XPA23 light chain R31I (Fab, V domains shown)
# VH: B1 VH
# VL: B1 VL with A31I
# B6: XPA23 light chain R31F (Fab, V domains shown)
# VH: B1 VH
# VL: B1 VL with A31F
# B7: XPA23 light chain S50N (Fab, V domains shown)
# VH: B1 VH
# VL: B1 VL with A31R, S50N
# B8: XPA23 light chain S50G (Fab, V domains shown)
# VH: B1 VH
# VL: B1 VL with A31R, S50G
# B9: XPA23 light chain R31D (Fab, V domains shown)
# VH: B1 VH
# VL: B1 VL with A31D
# B10: XPA23 light chain S50K (Fab, V domains shown)
# VH: B1 VH
# VL: B1 VL with A31R, S50K
# B11: XPA23 light chain R31Q (Fab, V domains shown)
# VH: B1 VH
# VL: B1 VL with A31Q
# B12: XPA23 light chain S50T (Fab, V domains shown)
# VH: B1 VH
# VL: B1 VL with A31R, S50T
# B13: XPA23 light chain R31W (Fab, V domains shown)
# VH: B1 VH
# VL: B1 VL with A31W
# B14: XPA23 light chain S50P (Fab, V domains shown)
# VH: B1 VH
# VL: B1 VL with A31R, S50P
# B15: XPA23 light chain R31G (Fab, V domains shown)
# VH: B1 VH
# VL: B1 VL with A31G
# B16: XPA23 light chain S50D (Fab, V domains shown)
# VH: B1 VH
# VL: B1 VL with A31R, S50D
# B17: XPA23 light chain S50V (Fab, V domains shown)
# VH: B1 VH
# VL: B1 VL with A31R, S50V
# B18: XPA23 light chain R31L (Fab, V domains shown)
# VH: B1 VH
# VL: B1 VL with A31L
# B19: XPA23 light chain S50H (Fab, V domains shown)
# VH: B1 VH
# VL: B1 VL with A31R, S50H
# B20: XPA23 light chain R31S (Fab, V domains shown)
# VH: B1 VH
# VL: B1 VL with A31S
# B21: XPA23 light chain R31Y (Fab, V domains shown)
# VH: B1 VH
# VL: B1 VL with A31Y
# B22: XPA23 light chain S50Q (Fab, V domains shown)
# VH: B1 VH
# VL: B1 VL with A31R, S50Q
# B23: XPA23 light chain S50L (Fab, V domains shown)
# VH: B1 VH
# VL: B1 VL with A31R, S50L
# B24: XPA23 light chain R31V (Fab, V domains shown)
# VH: B1 VH
# VL: B1 VL with A31V
# B25: XPA23 light chain S50I (Fab, V domains shown)
# VH: B1 VH
# VL: B1 VL with A31R, S50I
# B26: XPA23 light chain S50F (Fab, V domains shown)
# VH: B1 VH
# VL: B1 VL with A31R, S50F
# B27: XPA23 light chain R31E (Fab, V domains shown)
# VH: B1 VH
# VL: B1 VL with A31E
# B28: XPA23 light chain R31N (Fab, V domains shown)
# VH: B1 VH
# VL: B1 VL with A31N
# B29: XPA23 light chain S50A (Fab, V domains shown)
# VH: B1 VH
# VL: B1 VL with A31R, S50A
# B30: XPA23 light chain R31T (Fab, V domains shown)
# VH: B1 VH
# VL: B1 VL with A31T
# B31: XPA23 light chain R31K (Fab, V domains shown)
# VH: B1 VH
# VL: B1 VL with A31K
# B32: XPA23 light chain R31P (Fab, V domains shown)
# VH: B1 VH
# VL: B1 VL with A31P
# Molecular target: T1, IL-1β (UniProt P01584 117-269)
# T1 construct: Antigen immobilised on the Biacore chip
# Assay: Biacore, periplasmic extract
fold difference in affinity vs original,binding result,Binder
8.48 fold,,B1
0.02 fold,,B2
,no binding,B3
,no binding,B4
0.68 fold,,B5
0.92 fold,,B6
0.25 fold,,B7
0.14 fold,,B8
11.1 fold,,B9
0.1 fold,,B10
0.27 fold,,B11
0.87 fold,,B12
0.43 fold,,B13
,no binding,B14
0.92 fold,,B15
,no binding,B16

fold difference in affinity vs original,binding result,Binder
0.21 fold,,B17
0.51 fold,,B18
0.05 fold,,B19
0.44 fold,,B20
,no binding,B21
0.21 fold,,B22
0.49 fold,,B23
0.44 fold,,B24
0.25 fold,,B25
,no binding,B26
,no binding,B27
0.38 fold,,B28
0.13 fold,,B29
0.24 fold,,B30
1.18 fold,,B31
,no binding,B32
